Assay results as given in patent publication US10323078B2, “Isolated peptides and fragments thereof from fibrinogen for use as drugs, particularly in skin inflammatory diseases” (Universite Paris Descartes, priority 2015, dated 2019).

B1: MKRMVSWSFHKLKTMKHLLLLLLCVFLVKSQGVNDNEEGFFSARGHRPLDKKREEAPSLRPAPPPISGGGYRARPAKAAATQKKVERKAPDAGGCLHADPDLGVLC (protein)
chain: MKRMVSWSFHKLKTMKHLLLLLLCVFLVKSQGVNDNEEGFFSARGHRPLDKKREEAPSLRPAPPPISGGGRARPAKAAATQKKVERKAPDAGGCLHADPDLGVLCMKRMVSWSFHKLKTMKHLLLLLLCVFLVKSQGVNDNEEGFFSARGHRPLDKKREEAPSLRPAPPPISGGGYRARPAKAAATQKKVERKAPDAGGCLHADPDLGVLC
modifications: GST fusion; fragment Fg1
notes: fragment of Bß chain of human fibrinogen having 106 amino acids; recombinant GST-fused peptide expressed in E. coli

What was measured:
[1] = test system: P. acnes surface proteins; test: Binding of biotinylated ECM ligands to immobilized P. acnes surface proteins; design: species or system Propionibacterium acnes
Procedure: FIG. 2: Binding of P. acnes surface protein to purified human fibrinogen. (A) P. acnes surface proteins (0.8 to 50 μg/ml) were immobilized onto a 96-well polystyrene plate and probed with biotinylated fibrinogen (0.1 μg/ml) for 2 h at room temperature. (B) P. acnes surface proteins (25 μg/ml) were immobilized onto a 96-well polystyrene plate and probed with various concentrations of biotinylated fibrinogen ranging from 0.1 to 16 μg/ml for 2 h at room temperature. Bound biotinylated fibrinogen were detected with HRP-streptavidine as described in Materials and Methods.
To characterize the interaction between P. acnes and ligands, we used biotinylated molecules in quantitative and qualitative assays. In a first set of assays, ECM ligands (fibrinogen, collagens I, IV, VI and VIII) were used as labelled proteins with biotin. In a second set of assays, P. acnes surface proteins (total extract and purified Pfg) were biotinylated. For quantitative analysis, unlabeled protein were diluted into 50 mM carbonate-bicarbonate, pH 9.6 buffer to yield a protein concentration ranging from 0.01 to 50 μg/ml, and then immobilized to 96-well polystyrene plates at 4° C. overnight. […] After washing, bound peroxidase was detected using the chromogenic peroxidase substrate ABTS. […] Binding activity was detected by incubating the membranes with 20 ml of PBT containing biotinylated proteins (0.1 μg/ml) for 2 h at room temperature followed by three washes with PBT. Bound biotinylated proteins were detected by incubating the membrane with peroxidase conjugated to streptavidin (0.5 μg/ml in PBT) for 1 h at room temperature. After washing, bound peroxidase activity was detected using 3,3′-diaminobenzidine in the presence of CoCl2 and H2O2 (Harlow and Lane, 1988).
In order to identify P. acnes surface protein recognized by ECM ligands, we used the most commons ECM proteins recognize by skin related bacteria like collagens and fibrinogen. […] To identify surface proteins, P. acnes total heat protein extracts were electrophoretically separated and detected by silver staining (FIG. 1B). […]

[2] = test system: MRC5 cells; test: TNF-α production by P. acnes-stimulated MRC5 (ELISA); assay type: cell-based, human; details: 0.87 to 7 μM
Procedure: For experiences of stimulation with P. acnes, cells were incubated with the P. acnes suspension adjusted at the appropriate concentration, pre-treated for 1 h at 37° C. or not with fibrinogen recombinant peptides Fg1 and Fg2 at the concentrations 0.87, 1.75, 3.5 or 7 μM for the desired period of time at 37° C. in 5% CO2.
Human IL-1ß, IL-8, IL-12, hBD-2, and TNF-α protein concentration was measured in the supernatants of stimulated cells using various ELISA Set kits (Ready-Set-Go kit from eBioscience for acne experiments, and for psoriasis experiments the Duo set IL-8 kit from R&D Systems and the BD-2 Human Development (hBD-2) from Peprotech) according to the manufacturer's instructions. We used serial dilutions of recombinant human IL-1ß, IL-8, IL-12 and TNF-α for standard curve. The optical density was determined at 450 nm at a wavelength correction of 540 nm.
To assess the efficacy of Fg1 recombinant peptide, the production of O2^∘− and H2O2 by HaCaT cells NHDK, THP-1, MRC5 and HDF stimulated by pretreated P. acnes strains 6919, RON and PIE was measured. The amount of ROS produced was compared to that produced by the stimulated cells with untreated bacteria. Production baseline was obtained by measuring ROS on unstimulated cells. The production of IL-1ß, IL-8, IL-12 and TNF-α was also measured in all conditions cited above. The measurement of the production of ROS is performed by spectrofluorimetry in the presence of specific fluorochromes directly on the monolayer cell. Measurement of cytokine production was performed in parallel on the cell culture supernatant.
Two sets of experiments were implemented: 1) The cells were stimulated (18 h at 37° C.) by P. acnes strains previously pretreated with Fg1 and Fg2 peptides at the final concentrations ranging from 0.87 to 7 μM for 1 h at 37° C.; and 2) The cells were pretreated first with Fg1 and Fg2 peptides at the final concentrations ranging from 0.87 to 7 μM for 24 h at 37° C. and stimulated (18 h at 37° C.) by P. acnes strains.

Molecule	Binding activity of biotinylated ligand to immobilized P. acnes total surface protein ([1]; 25 μg/ml of protein immobilized per well, various quantity of biotinylated Fg and Collagen I)	P. acnes protein extract concentration at which the binding activity for fibrinogen reaches a plateau ([1]; several concentrations of protein extract immobilized, biotinylated fibrinogen 0.1 μg/ml)	Inhibition of Interleukine TNF alpha (TNF-α) production ([2]; P. acnes 6919, set I, bacteria first pretreated)	Inhibition of Interleukine TNF alpha (TNF-α) production ([2]; P. acnes 6919, set II, cells first pretreated)	Inhibition of Interleukine TNF alpha (TNF-α) production ([2]; P. acnes PIE, set I, bacteria first pretreated)	Inhibition of Interleukine TNF alpha (TNF-α) production ([2]; P. acnes PIE, set II, cells first pretreated)	Inhibition of Interleukine TNF alpha (TNF-α) production ([2]; P. acnes RON, set I, bacteria first pretreated)	Inhibition of Interleukine TNF alpha (TNF-α) production ([2]; P. acnes RON, set II, cells first pretreated)
human fibrinogen: purified commercial human fibrinogen (Sigma), glycoprotein hexamer of Aα, Bß and γ chains	strong binding activity	about 6.25 μg/ml						
B1			pos	pos	pos	pos	pos	pos
